These are literature values, as cited in paper PMC5871712.

By Ki is commonly meant the equilibrium dissociation constant of an inhibitor or competing ligand from its target.

Series [1] concerns the target CRFR2 (Rattus norvegicus) (UniProt P47866).
Series [2] addresses CRFR1 (Rattus norvegicus) (UniProt P35353).
In series [3] the target is CRFR2 (Rattus norvegicus) (UniProt P47866). The source holds these as a separate data set.
Series [4] deals with CRFR1 (Rattus norvegicus) (UniProt P35353). This is another data set of the same source.

Where two headings read alike, the source gives them in different places.

CRFR1 (Rattus norvegicus), sequence (P35353 24-415): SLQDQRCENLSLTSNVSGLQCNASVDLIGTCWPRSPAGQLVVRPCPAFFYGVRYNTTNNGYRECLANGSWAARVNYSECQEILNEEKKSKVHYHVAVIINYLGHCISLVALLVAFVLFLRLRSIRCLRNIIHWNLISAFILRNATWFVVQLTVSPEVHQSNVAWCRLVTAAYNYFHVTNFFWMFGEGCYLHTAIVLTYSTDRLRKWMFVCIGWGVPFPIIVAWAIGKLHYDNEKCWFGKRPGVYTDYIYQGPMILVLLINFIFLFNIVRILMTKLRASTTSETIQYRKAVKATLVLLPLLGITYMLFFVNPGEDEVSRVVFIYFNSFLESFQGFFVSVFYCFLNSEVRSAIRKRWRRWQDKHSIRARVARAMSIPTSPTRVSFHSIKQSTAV
CRFR2 (Rattus norvegicus), sequence (P47866 20-411): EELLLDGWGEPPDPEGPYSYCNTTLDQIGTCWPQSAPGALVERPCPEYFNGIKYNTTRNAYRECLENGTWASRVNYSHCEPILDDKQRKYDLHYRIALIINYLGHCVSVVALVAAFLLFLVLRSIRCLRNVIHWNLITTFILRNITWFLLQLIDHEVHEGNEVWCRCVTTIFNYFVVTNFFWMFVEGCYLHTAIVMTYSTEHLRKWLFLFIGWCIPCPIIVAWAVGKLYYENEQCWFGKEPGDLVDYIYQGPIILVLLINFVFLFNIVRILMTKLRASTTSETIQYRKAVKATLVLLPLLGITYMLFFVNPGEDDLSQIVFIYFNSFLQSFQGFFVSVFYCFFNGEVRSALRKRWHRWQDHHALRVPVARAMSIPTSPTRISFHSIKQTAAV
Ucn1, sequence (P55090 81-122): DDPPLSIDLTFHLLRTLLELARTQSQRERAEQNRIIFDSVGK
CRF, sequence (P01143 145-187): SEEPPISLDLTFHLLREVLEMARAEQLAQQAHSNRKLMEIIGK

As for Ucn1 (from UniProt P55090), the Ki is 0.86 nM in series [1] and 0.17 nM in series [2].
Regarding CRF (from UniProt P01143), the inhibition constant Ki in series [3] was 42 nM; in series [4], 1.6 nM.
